The target of the test is IL-11 (UniProt P20809). Description: ELISA on IL-11, positive control antibody ab130083.
IL-11, sequence (P20809 22-199 limits assumed): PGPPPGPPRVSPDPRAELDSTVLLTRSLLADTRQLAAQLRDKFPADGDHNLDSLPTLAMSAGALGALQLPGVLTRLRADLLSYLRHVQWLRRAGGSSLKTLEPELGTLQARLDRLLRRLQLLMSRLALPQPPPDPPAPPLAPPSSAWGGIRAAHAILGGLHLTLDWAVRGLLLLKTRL

Regarding 6D9A1 (Abcam, ab130083) (antibody), the OD(450 nm) value was found to be 3.62 OD450.

Values taken from patent publication US20250002574A1.
